# Reference: article PMC7852052
# Tests used:
# TNFR1-Fc = TNFR1-Fc (UniProt P25118); assay: BLI
# TNFR2-Fc = TNFR2-Fc (UniProt P25119); assay: BLI
# UniProt P25119, sequence (P25119 23-258): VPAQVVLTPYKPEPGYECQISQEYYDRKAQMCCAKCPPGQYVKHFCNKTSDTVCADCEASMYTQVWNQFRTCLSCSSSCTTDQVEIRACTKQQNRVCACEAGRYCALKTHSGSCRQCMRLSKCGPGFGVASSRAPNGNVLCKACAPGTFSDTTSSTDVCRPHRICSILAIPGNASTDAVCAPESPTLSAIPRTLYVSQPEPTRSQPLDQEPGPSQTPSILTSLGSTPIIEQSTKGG
# UniProt P25118, sequence (P25118 30-212): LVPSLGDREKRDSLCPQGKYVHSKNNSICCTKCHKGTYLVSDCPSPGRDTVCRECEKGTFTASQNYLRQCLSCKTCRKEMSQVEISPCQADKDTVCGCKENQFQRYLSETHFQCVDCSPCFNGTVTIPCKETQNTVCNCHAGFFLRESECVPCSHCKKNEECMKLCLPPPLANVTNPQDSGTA
Kd (TNFR1-Fc),Kd (TNFR2-Fc),Substance
0.526 nM,2.45 nM,mutated NGR-TNFα with valine at the start of TNFα (NGR-TNFα-V)
0.326 nM,1.86 nM,mutated murine TNFα with valine at the start (TNFα-V) (ligand)
0.741 nM,4.63 nM,native NGR-TNFα with leucine at the start of TNFα (NGR-TNFα-L)
0.309 nM,2.1 nM,native murine TNFα with leucine at the start (TNFα-L) (ligand)
